Kd data for two sequences are collected here from publication PMC10197177.

What all share (test): ELONA
What all share (settings): pH 7.4, room temperature, spike immobilized

Data set [1] deals with Spike protein, Omicron (SARS-CoV-2 (Omicron variant)) (UniProt P0DTC2).
Data set [2] has as its target Spike protein, Delta (SARS-CoV-2 (Delta variant)) (UniProt P0DTC2).
Data set [3] has as its target Spike protein, Beta (SARS-CoV-2 (Beta variant)) (UniProt P0DTC2).
For data set [4], the target named is Spike protein, Alpha (SARS-CoV-2 (Alpha variant)) (UniProt P0DTC2).

Take “ATCTACGAATTCTCCGCCAAGATAGAGGGTGGGCCGCGGAGAATTCACTGC [M40 (truncated working aptamer)]”: the Kd in data set [1] was 0.165 nM; in data set [2], 0.187 nM; in data set [3], 0.276 nM; in data set [4], 0.28 nM.

Turning to “AATGGATCCACATCTACGAGCTCGAACGCCCGGAGGAGACGGGGGCAGGGCGTGTTCACTGCAGACTTGACGAAGCT [K1 (truncated working aptamer)]”, the Kd in data set [1] amounted to 0.026 nM; in data set [2] it was 0.037 nM; in data set [3], 0.034 nM; in data set [4], 0.034 nM.
